Here are results for one molecule from patent WO2007014744A2 (dated 2007).

The target of series [1] is T1, fibroblast activation protein (FAP) (UniProt Q12884 1-760, limits assumed).
T1 construct: whole, on cells; also called FAP antigen; FAP on HT1080FAP cells
T1 sequence (looked up): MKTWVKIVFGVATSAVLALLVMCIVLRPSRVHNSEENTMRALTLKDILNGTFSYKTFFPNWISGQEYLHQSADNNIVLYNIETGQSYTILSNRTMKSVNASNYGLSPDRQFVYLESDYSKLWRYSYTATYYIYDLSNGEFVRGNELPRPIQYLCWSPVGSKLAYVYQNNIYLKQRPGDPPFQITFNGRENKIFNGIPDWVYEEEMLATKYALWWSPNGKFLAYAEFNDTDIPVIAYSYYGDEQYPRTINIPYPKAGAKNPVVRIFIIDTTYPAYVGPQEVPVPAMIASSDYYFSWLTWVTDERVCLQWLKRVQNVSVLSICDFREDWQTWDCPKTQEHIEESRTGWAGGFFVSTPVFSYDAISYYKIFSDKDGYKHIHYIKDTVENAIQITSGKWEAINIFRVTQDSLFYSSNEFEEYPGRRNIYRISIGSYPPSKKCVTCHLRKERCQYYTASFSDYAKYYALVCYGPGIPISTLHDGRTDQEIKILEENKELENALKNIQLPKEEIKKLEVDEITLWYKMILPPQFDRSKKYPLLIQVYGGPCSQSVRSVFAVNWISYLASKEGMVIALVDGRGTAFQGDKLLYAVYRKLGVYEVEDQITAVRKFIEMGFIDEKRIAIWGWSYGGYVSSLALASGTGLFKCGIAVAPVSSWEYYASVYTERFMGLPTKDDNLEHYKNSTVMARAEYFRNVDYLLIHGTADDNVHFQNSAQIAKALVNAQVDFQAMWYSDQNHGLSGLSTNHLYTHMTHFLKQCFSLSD
Description: flow cytometry on HT1080FAP against HT1080 cells, 5 ug/ml fusion protein, anti-Flag M2 detection. (A flow cytometer gives signals particle by particle.)

Series [2] concerns the molecule itself. In words: BS3 chemical crosslinking, gel filtration and native PAGE; multimers up to hexamers, native mass about 500 kDa. (SEC sorts molecules by how far they enter the pores of the column.)

B1: CD95-TNC-PL-SC40-CD95L prodrug (other)
chain: LEVARLSSKSVNAQVTDINSKGLELRKTVTTVETQNLEGLHHDGQFCHKPCPPGERKARDCTVNGDEPDCVPCQEGKEYTDKAHFSSKCRRCRLCDEGHGLEVEINCTRTQNTKCRCKPNFFCNSTVCEHCDPCTKCEHGIIKECTLTSNTKCKEEGSRSNPRDIACGCAAAPDIKDLLSRLEELEGLVSSLREQGTGGGSGRPPRDHPVGLLARGGGHPVGLLARGGGHPVGLLARTGLEQVQLVQSGGGMVEPGGSLRLSCAASGFTFSNAWMSWVRQAPGKGLEWVGRIKSKAGGGTAEYAAPVKGRFTISRDDSQNTLYLQMNSLKTDDTAVYYCTTHVYGAPRNWGQGSLVTVSSASTKGPKLEEGEFSEARVQSVLTQPPSVSAAPGQKVTISCSGSSSNIGNNYVSWYVQLPGTAPKLLIYDNNKRFSGVPDRFSGSKSGTSATLGITGLQTGDEADYYCGAWDGSLREAVFGGGTKVTVLGAAAVDDYKDDDDKEFTREKKELRKVAHLTGKSNSRSMPLEWEDTYGIVLLSGVKYKKGGLVINETGLYFVYSKVYFRGQSCNNLPLSHKVYMRNSKYPQDLVMMEGKMMSYCTTGQMWARSSYLGAVFNLTSADHLYVNVSELSLVNFEESQTFFGLYKL
notes: Made in HEK293 cells and purified on anti-Flag M2 agarose; Forms covalently associated trimers through the tenascin domain; Crosslinking, gel filtration and native PAGE (about 500 kDa) point to hexamers, i.e. dimers of trimers; also called SC40-CD95L-PD; CD95-TNC-PL-SC40-F-CD95L
Consider B1, for which the binding result in series [1] and in series [2] was “binds” throughout.
